From publication PMC5089723, “Structural Insights into the Nucleotide-Binding Domains of the P1B-type ATPases HMA6 and HMA8 from Arabidopsis thaliana” (PLoS ONE, 2016)

B1: HMA8 nucleotide binding and phosphorylation domains (HMA8^N/P, residues 526-806) (domain or fragment, Arabidopsis thaliana, UniProt B9DFX7 526-806, looked up)
chain: RGYLIRGGDVLERLASIDCVALDKTGTLTEGRPVVSGVASLGYEEQEVLKMAAAVEKTATHPIAKAIVNEAESLNLKTPETRGQLTEPGFGTLAEIDGRFVAVGSLEWVSDRFLKKNDSSDMVKLESLLDHKLSNTSSTSRYSKTVVYVGREGEGIIGAIAISDCLRQDAEFTVARLQEKGIKTVLLSGDREGAVATVAKNVGIKSESTNYSLSPEKKFEFISNLQSSGHRVAMVGDGINDAPSLAQADVGIALKIEAQENAASNAASVILVRNKLSHVVD
notes: also called N/P domain of HMA8; source: expressed and purified
B2: HMA6 nucleotide binding and phosphorylation domains (HMA6^N/P, residues 576-853) (domain or fragment, Arabidopsis thaliana, UniProt Q9SZC9 576-853, looked up)
chain: RGLLLRGGDILEKFSLVDTVVFDKTGTLTKGHPVVTEVIIPENPRHNLNDTWSEVEVLMLAAAVESNTTHPVGKAIVKAARARNCQTMKAEDGTFTEEPGSGAVAIVNNKRVTVGTLEWVKRHGATGNSLLALEEHEINNQSVVYIGVDNTLAAVIRFEDKVREDAAQVVENLTRQGIDVYMLSGDKRNAANYVASVVGINHERVIAGVKPAEKKNFINELQKNKKIVAMVGDGINDAAALASSNVGVAMGGGAGAASEVSPVVLMGNRLTQLLDAME
notes: also called N/P domain of HMA6; source: expressed and purified

Molecular target: the molecule itself
Assay: not stated; oligomeric state of the purified N/P domains and of their truncated fragments 'in solution'

Protein | stoichiometry N
B1 | 2
B2 | 2
